In PMC5187433, “A bromodomain–DNA interaction facilitates acetylation-dependent bivalent nucleosome recognition by the BET protein BRDT” (Nature Communications, 2016) one finds Kd and binding signal (fold reduced affinity vs WT) data, which are given here for two sequences.

pKd: −log10 of the molar value.

Common to all, as to test: ITC
Background: In ITC the heat of successive injections is recorded.

The target of one data set is N-BRDT(1) (Homo sapiens) (UniProt Q58F21). To be noted: EMSA: 20 mM Tris pH 7.5, 100 mM NaCl, 5 mM DTT, 0.5 mM EDTA, 4 C, ITC: 20 mM Tris pH 8.0, 150 mM NaCl, 1 mM EDTA, 1 mM TCEP, 20 C, NMR at 34 C.
For data set [1], the target named is N-BRDT(1) 3KE K37E;K41E;K45E (Homo sapiens) (UniProt Q58F21). To be noted: histone H4K5acK8ac (H4 A15C ligation); EMSA: 20 mM Tris pH 7.5, 100 mM NaCl, 5 mM DTT, 0.5 mM EDTA, 4 C; ITC: 20 mM Tris pH 8.0, 150 mM NaCl, 1 mM EDTA, 1 mM TCEP, 20 C; NMR at 34 C. (A gel shift assay detects complexes by their altered migration in electrophoresis.)
Data set [2] has as its target N-BRDT(1) 3KS K37S;K41S;K45S (Homo sapiens) (UniProt Q58F21). To be noted: histone H4K5acK8ac (H4 A15C ligation); EMSA: 20 mM Tris pH 7.5, 100 mM NaCl, 5 mM DTT, 0.5 mM EDTA, 4 C; ITC: 20 mM Tris pH 8.0, 150 mM NaCl, 1 mM EDTA, 1 mM TCEP, 20 C; NMR at 34 C.
The target of data set [3] is N-BRDT(1) K41S K41S (Homo sapiens) (UniProt Q58F21). To be noted: histone H4K5acK8ac (H4 A15C ligation); EMSA: 20 mM Tris pH 7.5, 100 mM NaCl, 5 mM DTT, 0.5 mM EDTA, 4 C; ITC: 20 mM Tris pH 8.0, 150 mM NaCl, 1 mM EDTA, 1 mM TCEP, 20 C; NMR at 34 C.

As a reminder, the pKd is the negative decadic logarithm of the Kd, by convention in mol/L. A low value points to a high Kd. Turning to “TCGGGGGCCGCCCTGGAGAATCCCGGTGCCGAGGCCGCTCAATTGGTCGTAGACAGCTCTAGCACCGCTTAAACGCACGTACGCGCTGTCCCCCGCGTTTTAACCGCCAAGGGGATTACTCCCTAGTCTCCAGGCACGTGTCAGATATATACATCCTGTGCATGTAC / CCGAGTACATGCACAGGATGTATATATCTGACACGTGCCTGGAGACTAGGGAGTAATCCCCTTGGCGGTTAAAACGCGGGGGACAGCGCGTACGTGCGTTTAAGCGGTGCTAGAGCTGTCTACGACCAATTGAGCGGCCTCGGCACCGGGATTCTCCAGGGCGGCCC [chimeric H3-H4K5acK8ac nucleosome (167 bp Widom)]”, in the data set with N-BRDT(1) (Homo sapiens) (H4K5acK8ac tail ligated to H3 core, WT H2A, H2B, H4), the negative logarithm of the Kd (pKd) is 5.30.

For the sequence “TCGGGGGCCGCCCTGGAGAATCCCGGTGCCGAGGCCGCTCAATTGGTCGTAGACAGCTCTAGCACCGCTTAAACGCACGTACGCGCTGTCCCCCGCGTTTTAACCGCCAAGGGGATTACTCCCTAGTCTCCAGGCACGTGTCAGATATATACATCCTGTGCATGTAC / CCGAGTACATGCACAGGATGTATATATCTGACACGTGCCTGGAGACTAGGGAGTAATCCCCTTGGCGGTTAAAACGCGGGGGACAGCGCGTACGTGCGTTTAAGCGGTGCTAGAGCTGTCTACGACCAATTGAGCGGCCTCGGCACCGGGATTCTCCAGGGCGGCCC [H4K5acK8ac nucleosome (167 bp Widom)]”, the pKd in the data set with N-BRDT(1) (Homo sapiens) (histone H4K5acK8ac (H4 A15C ligation)) was 5.70; in data set [2], 5.05; in data set [3], 5.15. In data set [1], this sequence yielded a binding signal (fold reduced affinity vs WT) of 5.
